Results reported in publication PMC3236217.
Blank lines part the entries; values can stand above or below the molecule they belong to.

Columns and labels:
inactive ERK2 = inactive ERK2 (UniProt P63086); test: pull-down; 9 µg active phosphorylated (without or with 1 mM ATP) or inactive ERK2 covalently attached to CNBr-activated Sepharose, 3 µg purified arrestin in 60 µl of 50 mM Tris-HCl pH 7.4, 100 mM KCl, 1 mM EGTA, 1 mM DTT, 20 min at 30°C; two washes; bound arrestin quantified by Western blot
[1] = target: constitutively active MEK1, Q02750
[2] = target: T1, active ERK2 phosphorylated at Thr183 and Tyr185 (PP-ERK2), P63086; test: pull-down on ERK2-Sepharose (CNBr-activated Sepharose with covalently attached ERK2), bound arrestin quantified by Western blot; settings: chain shown with the change, 9 µg immobilised ERK2, 3 µg arrestin in 60 µl, 50 mM Tris-HCl, pH 7.4, 100 mM KCl, 1 mM EGTA, 1 mM DTT, 20 min at 30°C, read off a plot
T1 chain: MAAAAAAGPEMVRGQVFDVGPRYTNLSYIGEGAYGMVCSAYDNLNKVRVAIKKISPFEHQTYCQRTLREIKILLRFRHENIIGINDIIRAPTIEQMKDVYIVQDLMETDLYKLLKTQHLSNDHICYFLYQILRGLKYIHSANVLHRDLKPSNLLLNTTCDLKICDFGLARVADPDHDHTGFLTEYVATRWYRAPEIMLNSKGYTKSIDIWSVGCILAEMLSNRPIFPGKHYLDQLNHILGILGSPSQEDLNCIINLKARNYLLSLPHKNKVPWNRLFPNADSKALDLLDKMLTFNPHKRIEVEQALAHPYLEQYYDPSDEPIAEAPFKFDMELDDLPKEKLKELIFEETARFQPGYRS

inactive ERK2, P63086 = target: T2, inactive ERK2, P63086; test: as above; settings: chain shown with the change; no ATP; 9 µg immobilised ERK2, 3 µg arrestin in 60 µl; 50 mM Tris-HCl, pH 7.4, 100 mM KCl, 1 mM EGTA, 1 mM DTT; 20 min at 30°C; parent: est. 1.6; read off a plot
T2 chain: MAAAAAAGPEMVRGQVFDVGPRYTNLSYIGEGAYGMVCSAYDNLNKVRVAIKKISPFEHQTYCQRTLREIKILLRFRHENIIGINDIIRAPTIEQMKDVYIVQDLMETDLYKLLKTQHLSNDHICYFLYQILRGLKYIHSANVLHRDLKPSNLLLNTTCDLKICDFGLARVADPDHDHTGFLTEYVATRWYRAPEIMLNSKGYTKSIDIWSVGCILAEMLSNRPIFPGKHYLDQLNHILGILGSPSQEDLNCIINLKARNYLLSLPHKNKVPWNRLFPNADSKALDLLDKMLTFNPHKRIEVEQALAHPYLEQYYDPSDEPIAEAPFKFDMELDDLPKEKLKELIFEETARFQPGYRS

Molecule: arrestin-2 (from UniProt P17870 1-418) (natural protein)
- binding to inactive ERK2 as percent of that to the active form (inactive ERK2): 33%

B3: arrestin-2, P17870 1-418 (natural protein)
chain: MGDKGTRVFKKASPNGKLTVYLGKRDFVDHIDLVEPVDGVVLVDPEYLKERRVYVTLTCAFRYGREDLDVLGLTFRKDLFVANVQSFPPAPEDKKPLTRLQERLIKKLGEHAYPFTFEIPPNLPCSVTLQPGPEDTGKACGVDYEVKAFCAENLEEKIHKRNSVRLVIRKVQYAPERPGPQPTAETTRQFLMSDKPLHLEASLDKEIYYHGEPISVNVHVTNNTNKTVKKIKISVRQYADICLFNTAQYKCPVAMEEADDTVAPSSTFCKVYTLTPFLANNREKRGLALDGKLKHEDTNLASSTLLREGANREILGIIVSYKVKVKLVVSRGGLLGDLASSDVAVELPFTLMHPKPKEEPPHREVPEHETPVDTNLIELDTNDDDIVFEDFARQRLKGMKDDKEEEEDGTGSPRLNDR
- increase of ERK2 phosphorylation (32P incorporation) by purified MEK1 in the presence of 4.4 pmol arrestin-2, against no arrestin [1]: 33%

Further lines, results first:

- increase of ERK2 phosphorylation (32P incorporation) by purified MEK1 in the presence of 4.4 pmol arrestin-3, against no arrestin [1]: 41%
B1: arrestin-3, P32120 1-420 (natural protein)
chain: MGEKPGTRVFKKSSPNCKLTVYLGKRDFVDHLDKVDPVDGVVLVDPDYLKDRKVFVTLTCAFRYGREDLDVLGLSFRKDLFIANYQAFPPTPNPPRPPTRLQERLLRKLGQHAHPFFFTIPQNLPCSVTLQPGPEDTGKACGVDFEIRAFCAKSLEEKSHKRNSVRLVIRKVQFAPEKPGPQPSAETTRHFLMSDRSLHLEASLDKELYYHGEPLNVNVHVTNNSTKTVKKIKVSVRQYADICLFSTAQYKCPVAQVEQDDQVSPSSTFCKVYTITPLLSNNREKRGLALDGKLKHEDTNLASSTIVKEGANKEVLGILVSYRVKVKLVVSRGGDVSVELPFVLMHPKPHDHIALPRPQSAATHPPTLLPSAVPETDAPVDTNLIEFETNYATDDDIVFEDFARLRLKGLKDEDYDDQFC

- response ([2]; no ATP, parent: est. 4.6): 1.4 pmol
- response ([2]; with 1 mM ATP, parent: est. 3.0): 1.7 pmol
- response (inactive ERK2, P63086): 0.9 pmol
B2: arrestin-2, P17870 3A (protein)
chain: MGDKGTRVFKKASPNGKLTVYLGKRDFVDHIDLVEPVDGVVLVDPEYLKERRVYVTLTCAFRYGREDLDVLGLTFRKDLFVANVQSFPPAPEDKKPLTRLQERLIKKLGEHAYPFTFEIPPNLPCSVTLQPGPEDTGKACGVDYEVKAFCAENLEEKIHKRNSVRLVIRKVQYAPERPGPQPTAETTRQFLMSDKPLHLEASLDKEIYYHGEPISVNVHVTNNTNKTVKKIKISVRQYADICLFNTAQYKCPVAMEEADDTVAPSSTFCKVYTLTPFLANNREKRGLALDGKLKHEDTNLASSTLLREGANREILGIIVSYKVKVKLVVSRGGLLGDLASSDVAVELPFTLMHPKPKEEPPHREVPEHETPVDTNLIELDTNDDDAAAEDFARQRLKGMKDDKEEEEDGTGSPRLNDR
